This assay has as its target Tenascin-C (Mus musculus, UniProt Q80YX1, FITC-labelled tenascin-C). Nature of the assay: isothermal fluorescence titration.

A word on the Kd: it is the equilibrium constant for the complex coming apart. The low end stands for higher affinity, the high end for lower affinity.

B1: CCL26 (protein)
chain: TRGSDISKTCCFQYSHKPLPWTWVRSYEFTSNSCSQRAVIFTTKRGKKVCTHPRKKWVQKYISLLKTPKQL
The molecule B1 gave a Kd of 270 nM.

For the origin of these results see paper PMC10572825 (2023).
